The source of these data is patent US20220273789A1.

One experiment addresses Human IgG isotype control (ThermoFischer Scientific, ref 12000C) (human). The experiment in a line: BLI, gEgI on Ni-NTA tips, hIgG in solution. For orientation: BLI is a label-free optical method that tracks binding on a fibre tip over time.
On to “HSV58 (HSV2- gE_P319S_gI) (from UniProt P89475 21-416; P06764 21-256) (receptor)”, for which the equilibrium dissociation constant (Kd) (as a rule, the free concentration of one partner at which half of the binding sites on the other are occupied at equilibrium, for simple one-to-one binding) was 116 nM; the Relative Affinity (%) compared to control construct HSV34 is 100%; the koff (in general, the first-order rate constant of dissociation) was found to be 0.000604 s⁻¹; the kon (usually a measure of how fast the partners come together) came to 5290 M⁻¹ s⁻¹.

Consider “HSV62 (HSV2- gE_N241A-R320D_gI) (from UniProt P89475 21-416; P06764 21-256) (receptor)”, for which the Kd amounted to 4200 nM, the Relative Affinity (%) compared to control construct HSV34 turned out to be 3%, the dissociation rate constant (koff) was determined as 0.00129 s⁻¹ and the kon came out at 317 M⁻¹ s⁻¹.

For “HSV34 (HSV2-gE_gI) (from UniProt P89475 21-416; P06764 21-256) (receptor)”, the dissociation constant (Kd) was found to be 116 nM, the Relative Affinity (%) compared to control construct HSV34 is 100%, the koff was found to be 0.000541 s⁻¹ and the kon is 3870 M⁻¹ s⁻¹.

Substance “HSV42 (HSV2- gE_346_insert ADIT_gI) (from UniProt P89475 21-416; P06764 21-256) (receptor)” gave a koff of under 1e-07 s⁻¹ and a kon of 5690 M⁻¹ s⁻¹.

“HSV52 (HSV2- gE_H245A-P319R_gI) (from UniProt P89475 21-416; P06764 21-256) (receptor)” yielded a Kd of 2530 nM, a Relative Affinity (%) compared to control construct HSV34 of 5%, a koff of 0.00304 s⁻¹ and an on-rate constant (kon) of 1310 M⁻¹ s⁻¹.

“HSV57 (HSV2- gE_P319D_gI) (from UniProt P89475 21-416; P06764 21-256) (receptor)” came in with a Kd of 9580 nM, a Relative Affinity (%) compared to control construct HSV34 of 1%, an off-rate (koff) of 0.00403 s⁻¹ and an on-rate constant (kon) of 362 M⁻¹ s⁻¹.

For the substance “HSV60 (HSV2- gE_N241A_gI) (from UniProt P89475 21-416; P06764 21-256) (receptor)”, the dissociation constant Kd turned out to be 81.9 nM, the Relative Affinity (%) compared to control construct HSV34 stood at 142%, the dissociation rate constant (koff) came out at 0.000727 s⁻¹ and the kon worked out at 8990 M⁻¹ s⁻¹.

For the substance “HSV49 (HSV2- gE_P319K_gI) (from UniProt P89475 21-416; P06764 21-256) (receptor)”, the dissociation constant Kd is 1710 nM, the Relative Affinity (%) compared to control construct HSV34 was 7%, the dissociation rate constant (koff) is 0.00217 s⁻¹ and the kon stood at 1340 M⁻¹ s⁻¹.

Turning to “HSV53 (HSV2- gE_H245A-P319G_gI) (from UniProt P89475 21-416; P06764 21-256) (receptor)”, the Kd was found to be 807 nM, the Relative Affinity (%) compared to control construct HSV34 came to 14%, the off-rate constant (koff) amounted to 0.00349 s⁻¹ and the association rate constant (kon) came out at 4480 M⁻¹ s⁻¹.

Turning to “HSV61 (HSV2- gE_R320D_gI) (from UniProt P89475 21-416; P06764 21-256) (receptor)”, the Kd worked out at 2400 nM, the Relative Affinity (%) compared to control construct HSV34 was determined as 5%, the koff came to 0.0012 s⁻¹ and the on-rate constant (kon) stood at 514 M⁻¹ s⁻¹.

The substance “HSV56 (HSV2- gE_A337G_gI) (from UniProt P89475 21-416; P06764 21-256) (receptor)” gave a Kd of 98.9 nM, a Relative Affinity (%) compared to control construct HSV34 of 117%, a koff of 0.00082 s⁻¹ and an on-rate constant (kon) of 8430 M⁻¹ s⁻¹.

“HSV59 (HSV2- gE_S338D_gI) (from UniProt P89475 21-416; P06764 21-256) (receptor)” gave a Kd of 890 nM, a Relative Affinity (%) compared to control construct HSV34 of 13%, a koff of 0.00128 s⁻¹ and an on-rate constant (kon) of 1550 M⁻¹ s⁻¹.

“HSV47 (HSV2- gE_P319R_gI) (from UniProt P89475 21-416; P06764 21-256) (receptor)” gave a dissociation constant Kd of 2550 nM, a Relative Affinity (%) compared to control construct HSV34 of 5%, a koff of 0.00355 s⁻¹ and an on-rate constant (kon) of 1490 M⁻¹ s⁻¹.

As to “HSV46 (HSV2- gE_P319A_gI) (from UniProt P89475 21-416; P06764 21-256) (receptor)”, the dissociation constant Kd was found to be 73.5 nM, the Relative Affinity (%) compared to control construct HSV34 stood at 158%, the koff stood at 0.000482 s⁻¹ and the kon was determined as 6630 M⁻¹ s⁻¹.

“HSV54 (HSV2- gE_H245A-P319K_gI) (from UniProt P89475 21-416; P06764 21-256) (receptor)”: the Kd was 883 nM, the Relative Affinity (%) compared to control construct HSV34 came out at 13%, the koff was 0.00284 s⁻¹ and the kon is 3370 M⁻¹ s⁻¹.

As to “HSV63 (HSV2- gE_N241A-P319D_gI) (from UniProt P89475 21-416; P06764 21-256) (receptor)”, the koff is under 1e-07 s⁻¹ and the association rate constant (kon) stood at 3720 M⁻¹ s⁻¹.

“HSV41 (HSV2-gE_338_insert ARAA_gI) (from UniProt P89475 21-416; P06764 21-256) (receptor)” gave a Kd of 1600 nM, a Relative Affinity (%) compared to control construct HSV34 of 7%, an off-rate constant (koff) of 0.00309 s⁻¹ and an on-rate constant (kon) of 2010 M⁻¹ s⁻¹.

Substance “HSV48 (HSV2- gE_P319G_gI) (from UniProt P89475 21-416; P06764 21-256) (receptor)” yielded an equilibrium dissociation constant (Kd) of 700 nM, a Relative Affinity (%) compared to control construct HSV34 of 17%, a koff of 0.00556 s⁻¹ and an on-rate (kon) of 8130 M⁻¹ s⁻¹.

For a further experiment, the target named is human IgG (human). Nature of the experiment: BLI (Octet), gEgI on Ni-NTA sensor, hIgG in solution.
For the substance “HSV2-gE_R314G P318R_gI (from UniProt P89475 21-416; P06764 21-256) (receptor)”, the Kd came out at 148 nM, the Response turned out to be 0.22 nm, the koff was determined as 0.000833 s⁻¹ and the on-rate constant (kon) was found to be 5640 M⁻¹ s⁻¹.

With “HSV2-gE_P317F V340W_gI (from UniProt P89475 21-416; P06764 21-256) (receptor)”, the Kd turned out to be 577 nM, the Response stood at 0.116 nm, the koff was found to be 0.00414 s⁻¹ and the kon worked out at 7170 M⁻¹ s⁻¹.

“HSV2-gE_R314L V340M_gI (from UniProt P89475 21-416; P06764 21-256) (receptor)” registered a dissociation constant Kd of 452 nM, a Response of 0.427 nm, a koff of 0.00456 s⁻¹ and a kon of 10100 M⁻¹ s⁻¹.

Substance “HSV2-gE_P318I S338H_gI (from UniProt P89475 21-416; P06764 21-256) (receptor)” registered a Kd of 286 nM, a Response of 0.252 nm, a koff of 0.0025 s⁻¹ and a kon of 8740 M⁻¹ s⁻¹.

In the case of “HSV2-gE_P318D S338G_gI (from UniProt P89475 21-416; P06764 21-256) (receptor)”, the equilibrium dissociation constant (Kd) came out at 330 nM, the Response is 0.143 nm, the koff was 0.00256 s⁻¹ and the on-rate (kon) was 7750 M⁻¹ s⁻¹.

Turning to “HSV2-gE_P317K S338H_gI (from UniProt P89475 21-416; P06764 21-256) (receptor)”, the Kd was found to be 338 nM, the Response worked out at 0.146 nm, the off-rate (koff) stood at 0.00195 s⁻¹ and the kon turned out to be 5780 M⁻¹ s⁻¹.

For the substance “HSV2-gE_P318I S338G_gI (from UniProt P89475 21-416; P06764 21-256) (receptor)”, the Kd came to 335 nM, the Response came out at 0.237 nm, the koff was 0.00297 s⁻¹ and the kon came out at 8870 M⁻¹ s⁻¹.

The substance “HSV2-gE_P318I S338L_gI (from UniProt P89475 21-416; P06764 21-256) (receptor)” came in with a Kd of 152 nM, a Response of 0.411 nm, a koff of 0.00124 s⁻¹ and an on-rate constant (kon) of 8130 M⁻¹ s⁻¹.

“HSV2-gE_R314P F322P_gI (from UniProt P89475 21-416; P06764 21-256) (receptor)” yielded a Kd of 283 nM, a Response of 0.561 nm, a koff of 0.00356 s⁻¹ and an association rate constant (kon) of 12600 M⁻¹ s⁻¹.

As for “HSV2-gE_R314G V340W_gI (from UniProt P89475 21-416; P06764 21-256) (receptor)”, the Kd was 1010 nM, the Response is 0.144 nm, the off-rate (koff) turned out to be 0.00543 s⁻¹ and the kon was 5400 M⁻¹ s⁻¹.

“HSV2-gE_R314L F322P_gI (from UniProt P89475 21-416; P06764 21-256) (receptor)” had a dissociation constant Kd of 210 nM, a Response of 0.607 nm, a koff of 0.00255 s⁻¹ and a kon of 12100 M⁻¹ s⁻¹.

“HSV2-gE_H245S P319G_gI (from UniProt P89475 21-416; P06764 21-256) (receptor)” displayed a Kd of 363 nM, a Response of 0.313 nm, a koff of 0.0027 s⁻¹ and a kon of 7440 M⁻¹ s⁻¹.

Regarding “HSV2-gE_P319L V340R_gI (from UniProt P89475 21-416; P06764 21-256) (receptor)”, the dissociation constant Kd was 160 nM, the Response turned out to be 0.509 nm, the koff was 0.00141 s⁻¹ and the kon was 8770 M⁻¹ s⁻¹.

“HSV2-gE_R314L P318D_gI (from UniProt P89475 21-416; P06764 21-256) (receptor)” had a Kd of under 0.001 nM, a Response of 0.134 nm, a koff of under 1e-07 s⁻¹ and a kon of 7900 M⁻¹ s⁻¹.

In turn, “HSV2-gE_R314G P318I_gI (from UniProt P89475 21-416; P06764 21-256) (receptor)” showed a Kd of 449 nM, a Response of 0.153 nm, a koff of 0.00278 s⁻¹ and an association rate constant (kon) of 6200 M⁻¹ s⁻¹.

In turn, “HSV2-gE_R314P V340W_gI (from UniProt P89475 21-416; P06764 21-256) (receptor)” gave a Kd of 560 nM, a Response of 0.134 nm, an off-rate constant (koff) of 0.00355 s⁻¹ and a kon of 6340 M⁻¹ s⁻¹.

For the substance “HSV2-gE_P319L V340W_gI (from UniProt P89475 21-416; P06764 21-256) (receptor)”, the Kd was found to be 230 nM, the Response was found to be 0.139 nm, the koff worked out at 0.00217 s⁻¹ and the kon came to 9450 M⁻¹ s⁻¹.

In the case of “HSV2-gE_R314P V340R_gI (from UniProt P89475 21-416; P06764 21-256) (receptor)”, the Kd was found to be 459 nM, the Response is 0.351 nm, the off-rate constant (koff) stood at 0.00241 s⁻¹ and the kon turned out to be 5260 M⁻¹ s⁻¹.
